Source: PMC11470957 (2024)

B1: BRD3^BD2 (second bromodomain of BRD3, residues 306-416) (domain or fragment)
chain: GKLSEHLRYCDSILREMLSKKHAAYAWPFYKPVDAEALELHDYHDIIKHPMDLSTVKRKMDGREYPDAQGFAADVRLMFSNCYKYNPPDHEVVAMARKLQDVFEMRFAKMP
B2: KLHDC2 substrate binding domain (KLHDC2^SBD, 15-361) (domain or fragment)
chain: GPAFESYESMELACPAERSGHVAVSDGRHMFVWGGYKSNQVRGLYDFYLPREELWIYNMETGRWKKINTEGDVPPSMSGSCAVCVDRVLYLFGGHHSRGNTNKFYMLDSRSTDRVLQWERIDCQGIPPSSKDKLGVWVYKNKLIFFGGYGYLPEDKVLGTFEFDETSFWNSSHPRGWNDHVHILDTETFTWSQPITTGKAPSPRAAHACATVGNRGFVFGGRYRDARMNDLHYLNLDTWEWNELIPQGICPVGRSWHSLTPVSSDHLFLFGGFTTDKQPLSDAWTYCISKNEWIQFNHPYTEKPRLWHTACASDEGEVIVFGGCANNLLVHHRAAHSNEILIFSVQP

What was measured:
KLHDC2 R56A mutant [1] = target: T1, KLHDC2 R56A mutant (UniProt Q9Y2U9 15-361, R56A); assay: ITC; ternary complex with PROTAC SJ46421
[2] = target: KLHDC2 K291 to alanine mutant (UniProt Q9Y2U9 15-361, K291 to alanine); assay: ITC; ternary, with SJ46421
[3] = target: KLHDC2 R112 to alanine mutant (UniProt Q9Y2U9 15-361, R112 to alanine); assay: ITC; ternary, with SJ46421
KLHDC2 R56A mutant [4] = target: T1, KLHDC2 R56A mutant; assay: ITC; ternary, with SJ46421
[5] = target: KLHDC2 H346/R347 to alanine mutant (UniProt Q9Y2U9 15-361, H346 to alanine | R347 to alanine, H346A and R347A taken as one combined double mutant, because the text lists H346/R347 as one of four patches mutated to alanine; whether they were combined is not printed explicitly); assay: ITC; ternary, with SJ46421
[6] = target: B1; assay: ITC; ternary, BRD3 BD2 pre-bound to SJ46423
[7] = target: T2, BRD4^BD2 G-to-E swap mutant (G386E) (UniProt O60885 334-460, G-to-E swap mutation (G386)); assay: ITC; ternary complex with PROTAC SJ46421
[8] = target: T3, BRD3^BD2 E344G swap mutant (UniProt Q15059 306-416, E344G); assay: ITC; ternary complex with PROTAC SJ46421
[9] = target: T4, BRD2^BD2 G-to-E swap mutant (G382E) (UniProt P25440 344-455, G-to-E swap mutation (G382)); assay: ITC; ternary complex with PROTAC SJ46421
[10] = target: T5, BRD4^BD2 (second bromodomain of BRD4, residues 334-460) (UniProt O60885 334-460); assay: ITC; ternary complex with PROTAC SJ46421 (BRD4BD2-SJ46421 in cell)
[11] = target: T6, BRD2^BD2 (second bromodomain of BRD2, residues 344-455) (UniProt P25440 344-455); assay: ITC; ternary complex with PROTAC SJ46421 (BRD2BD2-SJ46421 in cell)
[12] = target: T5, BRD4^BD2 (second bromodomain of BRD4, …); assay: ITC; ternary, BRD4 BD2 pre-bound to PROTAC SJ46421
[13] = target: T6, BRD2^BD2 (second bromodomain of BRD2, …); assay: ITC; ternary, BRD2 BD2 pre-bound to PROTAC SJ46421
[14] = target: T2, BRD4^BD2 G-to-E swap mutant (G386E); assay: ITC; ternary, with SJ46421
[15] = target: T3, BRD3^BD2 E344G swap mutant; assay: ITC; ternary, with SJ46421
[16] = target: T4, BRD2^BD2 G-to-E swap mutant (G382E); assay: ITC; ternary, with SJ46421
[17] = target: B1; assay: ITC; ternary, BRD3 BD2 pre-bound to PROTAC SJ46421
[18] = target: B1; assay: ITC; ternary complex with PROTAC SJ46421 (BRD3BD2-SJ46421 in cell)
[19] = target: B1; assay: ITC; ternary complex with PROTAC SJ46423 (BRD3BD2-SJ46423 in cell)

Binder	Kd (KLHDC2 R56A mutant [1]) [nM]	Kd [2] [nM]	Kd [3] [nM]	Kd (KLHDC2 R56A mutant [4]) [nM]	Kd [5] [nM]	Kd [6] [nM]	Kd [7] [nM]	Kd [8] [nM]	Kd [9] [nM]	Kd [10] [nM]	Kd [11] [nM]	Kd [12] [nM]	Kd [13] [nM]	Kd [14] [nM]	Kd [15] [nM]	Kd [16] [nM]	Kd [17] [nM]	Kd [18] [nM]	Kd [19] [nM]
B1	273	25.6	39.7	273	50.9														
B2						251	24.5	181	95.4	109	208	109	208	24.5	181	95.4	19	19	251
